Results published in article PMC7555777, “Cataract-Associated New Mutants S175G/H181Q of βΒ2-Crystallin and P24S/S31G of γD-Crystallin Are Involved in Protein Aggregation by Structural Changes” (International Journal of Molecular Sciences, 2020).

Biological target: the molecule itself
Assay: SEC; Superdex 200 HR 10/30 in PBS; 450 µg/100 µL protein loaded; 0.5 mL/min; UV 280 nm; markers albumin (66.4 kDa) and α-lactalbumin (14.2 kDa); dimer in rapid equilibrium with monomer

B1: wild-type βB2-crystallin (natural protein, human)
chain: ASDHQTQAGKPQSLNPKIIIFEQENFQGHSHELNGPCPNLKETGVEKAGSVLVQAGPWVGYEQANCKGEQFVFEKGEYPRWDSWTSSRRTDSLSSLRPIKVDSQEHKIILYENPNFTGKKMEIIDDDVPSFHAHGYQEKVSSVRVQSGTWVGYQYPGYRGLQYLLEKGDYKDSSDFGAPHPQVQSVRRIRDMQWHQRGAFHPSN
notes: human beta-crystallin B2 (CRBB2 cDNA from a human cDNA library in pGEX-4t-1); Residues left by the vector after the thrombin cut are not described; also called WT βB2-crystallin; Beta-crystallin B2; source: E. coli BL21 (DE3), purified (glutathione-agarose, GST cut off with thrombin)
binding result: binds

B2: S175G/H181Q mutant βB2-crystallin (natural protein, human)
chain: ASDHQTQAGKPQSLNPKIIIFEQENFQGHSHELNGPCPNLKETGVEKAGSVLVQAGPWVGYEQANCKGEQFVFEKGEYPRWDSWTSSRRTDSLSSLRPIKVDSQEHKIILYENPNFTGKKMEIIDDDVPSFHAHGYQEKVSSVRVQSGTWVGYQYPGYRGLQYLLEKGDYKDSGDFGAPQPQVQSVRRIRDMQWHQRGAFHPSN
notes: human beta-crystallin B2 (CRBB2 cDNA in pGEX-4t-1) with the two changes found in cataract lenses, made by site-directed mutagenesis; Residues left by the vector after the thrombin cut are not described; also called S175G/H181Q βB2-crystallin; CRBB2 S175G/H181Q; source: E. coli BL21 (DE3), purified (glutathione-agarose, GST cut off with thrombin)
binding result: binds
